Data reported in paper PMC2946813.

Target: human factor Xa (human) (UniProt P00742)
Test: prothrombinase activity titration

UniProt P00742, sequence (P00742 41-179, chain 1 of 2): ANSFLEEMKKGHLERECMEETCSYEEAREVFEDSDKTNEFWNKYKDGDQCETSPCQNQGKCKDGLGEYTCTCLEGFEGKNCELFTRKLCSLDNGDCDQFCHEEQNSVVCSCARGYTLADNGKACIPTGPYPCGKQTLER
UniProt P00742, sequence (P00742 235-488, chain 2 of 2): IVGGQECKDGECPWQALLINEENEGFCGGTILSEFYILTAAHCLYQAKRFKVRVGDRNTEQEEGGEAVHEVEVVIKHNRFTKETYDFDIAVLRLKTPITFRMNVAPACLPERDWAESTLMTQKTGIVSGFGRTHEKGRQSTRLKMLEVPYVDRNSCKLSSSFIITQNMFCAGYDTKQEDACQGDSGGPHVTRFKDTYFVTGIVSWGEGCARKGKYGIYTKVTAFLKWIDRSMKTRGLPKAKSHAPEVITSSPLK

Kd: 0.67 nM
Substance: plasma-derived human factor V activated with α-thrombin (from UniProt P12259 29-737) (natural protein)
